Data: patent publication US20150344540A1, “NOVEL GLP-1 RECEPTOR AGONISTS WITH CHOLESTEROL EFFLUX ACTIVITY” (NOVO NORDISK A/S, priority 2012, published 2015)
Where no end group is shown, it is not given here. [ ]: non-standard residue; d: D form. Aib = CC(C)(N)C(=O)O

B1: [Aib8,Glu23,Val25,Lys30,Glu34,Lys35,Aib36,Lys37]-GLP-1-(7-37)-peptidyl-Glu-Phe-Leu amide (peptide)
peptide: H[Aib]EGTFTSDVSSYLEGEAVKEFIKWLVEK[Aib]KEFL-NH2
modifications: N-terminus assumed
SMILES: CC[C@H](C)[C@H](NC(=O)[C@H](Cc1ccccc1)NC(=O)[C@H](CCC(=O)O)NC(=O)[C@H](CCCCN)NC(=O)[C@@H](NC(=O)[C@H](C)NC(=O)[C@H](CCC(=O)O)NC(=O)CNC(=O)[C@H](CCC(=O)O)NC(=O)[C@H](CC(C)C)NC(=O)[C@H](Cc1ccc(O)cc1)NC(=O)[C@H](CO)NC(=O)[C@H](CO)NC(=O)[C@@H](NC(=O)[C@H](CC(=O)O)NC(=O)[C@H](CO)NC(=O)[C@@H](NC(=O)[C@H](Cc1ccccc1)NC(=O)[C@@H](NC(=O)CNC(=O)[C@H](CCC(=O)O)NC(=O)C(C)(C)NC(=O)[C@@H](N)Cc1c[nH]cn1)[C@@H](C)O)[C@@H](C)O)C(C)C)C(C)C)C(=O)N[C@@H](CCCCN)C(=O)N[C@@H](Cc1c[nH]c2ccccc12)C(=O)N[C@@H](CC(C)C)C(=O)N[C@H](C(=O)N[C@@H](CCC(=O)O)C(=O)N[C@@H](CCCCN)C(=O)NC(C)(C)C(=O)N[C@@H](CCCCN)C(=O)N[C@@H](CCC(=O)O)C(=O)N[C@@H](Cc1ccccc1)C(=O)N[C@@H](CC(C)C)C(N)=O)C(C)C
B2: [Aib8,Glu23,Val25,Glu34,Lys35,Val36,Lys37]-GLP-1-(7-37)-peptidyl-Glu-Phe-Leu amide (peptide)
peptide: H[Aib]EGTFTSDVSSYLEGEAVKEFIAWLVEKVKEFL-NH2
modifications: N-terminus assumed
SMILES: CC[C@H](C)[C@H](NC(=O)[C@H](Cc1ccccc1)NC(=O)[C@H](CCC(=O)O)NC(=O)[C@H](CCCCN)NC(=O)[C@@H](NC(=O)[C@H](C)NC(=O)[C@H](CCC(=O)O)NC(=O)CNC(=O)[C@H](CCC(=O)O)NC(=O)[C@H](CC(C)C)NC(=O)[C@H](Cc1ccc(O)cc1)NC(=O)[C@H](CO)NC(=O)[C@H](CO)NC(=O)[C@@H](NC(=O)[C@H](CC(=O)O)NC(=O)[C@H](CO)NC(=O)[C@@H](NC(=O)[C@H](Cc1ccccc1)NC(=O)[C@@H](NC(=O)CNC(=O)[C@H](CCC(=O)O)NC(=O)C(C)(C)NC(=O)[C@@H](N)Cc1c[nH]cn1)[C@@H](C)O)[C@@H](C)O)C(C)C)C(C)C)C(=O)N[C@@H](C)C(=O)N[C@@H](Cc1c[nH]c2ccccc12)C(=O)N[C@@H](CC(C)C)C(=O)N[C@H](C(=O)N[C@@H](CCC(=O)O)C(=O)N[C@@H](CCCCN)C(=O)N[C@H](C(=O)N[C@@H](CCCCN)C(=O)N[C@@H](CCC(=O)O)C(=O)N[C@@H](Cc1ccccc1)C(=O)N[C@@H](CC(C)C)C(N)=O)C(C)C)C(C)C
B3: [Aib8,Glu23,Val25,Gln30,His31,Glu34,Lys35,Leu36,Lys37]-GLP-1-(7-37)-peptidyl-Glu-Phe-Leu amide (peptide)
peptide: H[Aib]EGTFTSDVSSYLEGEAVKEFIQHLVEKLKEFL-NH2
modifications: N-terminus assumed
SMILES: CC[C@H](C)[C@H](NC(=O)[C@H](Cc1ccccc1)NC(=O)[C@H](CCC(=O)O)NC(=O)[C@H](CCCCN)NC(=O)[C@@H](NC(=O)[C@H](C)NC(=O)[C@H](CCC(=O)O)NC(=O)CNC(=O)[C@H](CCC(=O)O)NC(=O)[C@H](CC(C)C)NC(=O)[C@H](Cc1ccc(O)cc1)NC(=O)[C@H](CO)NC(=O)[C@H](CO)NC(=O)[C@@H](NC(=O)[C@H](CC(=O)O)NC(=O)[C@H](CO)NC(=O)[C@@H](NC(=O)[C@H](Cc1ccccc1)NC(=O)[C@@H](NC(=O)CNC(=O)[C@H](CCC(=O)O)NC(=O)C(C)(C)NC(=O)[C@@H](N)Cc1c[nH]cn1)[C@@H](C)O)[C@@H](C)O)C(C)C)C(C)C)C(=O)N[C@@H](CCC(N)=O)C(=O)N[C@@H](Cc1c[nH]cn1)C(=O)N[C@@H](CC(C)C)C(=O)N[C@H](C(=O)N[C@@H](CCC(=O)O)C(=O)N[C@@H](CCCCN)C(=O)N[C@@H](CC(C)C)C(=O)N[C@@H](CCCCN)C(=O)N[C@@H](CCC(=O)O)C(=O)N[C@@H](Cc1ccccc1)C(=O)N[C@@H](CC(C)C)C(N)=O)C(C)C
B4: [Aib8,Glu23,Val25,Glu34,Lys35,Aib36,Leu37]-GLP-1-(7-37)-peptidyl-Ser-Phe-Leu amide (peptide)
peptide: H[Aib]EGTFTSDVSSYLEGEAVKEFIAWLVEK[Aib]LSFL-NH2
modifications: N-terminus assumed
SMILES: CC[C@H](C)[C@H](NC(=O)[C@H](Cc1ccccc1)NC(=O)[C@H](CCC(=O)O)NC(=O)[C@H](CCCCN)NC(=O)[C@@H](NC(=O)[C@H](C)NC(=O)[C@H](CCC(=O)O)NC(=O)CNC(=O)[C@H](CCC(=O)O)NC(=O)[C@H](CC(C)C)NC(=O)[C@H](Cc1ccc(O)cc1)NC(=O)[C@H](CO)NC(=O)[C@H](CO)NC(=O)[C@@H](NC(=O)[C@H](CC(=O)O)NC(=O)[C@H](CO)NC(=O)[C@@H](NC(=O)[C@H](Cc1ccccc1)NC(=O)[C@@H](NC(=O)CNC(=O)[C@H](CCC(=O)O)NC(=O)C(C)(C)NC(=O)[C@@H](N)Cc1c[nH]cn1)[C@@H](C)O)[C@@H](C)O)C(C)C)C(C)C)C(=O)N[C@@H](C)C(=O)N[C@@H](Cc1c[nH]c2ccccc12)C(=O)N[C@@H](CC(C)C)C(=O)N[C@H](C(=O)N[C@@H](CCC(=O)O)C(=O)N[C@@H](CCCCN)C(=O)NC(C)(C)C(=O)N[C@@H](CC(C)C)C(=O)N[C@@H](CO)C(=O)N[C@@H](Cc1ccccc1)C(=O)N[C@@H](CC(C)C)C(N)=O)C(C)C
B5: [Aib8,Glu23,Val25,Leu33,Glu34,Lys35,Aib36,Lys37]-GLP-1-(7-37)-peptidyl-Glu-Trp-Leu amide (peptide)
peptide: H[Aib]EGTFTSDVSSYLEGEAVKEFIAWLLEK[Aib]KEWL-NH2
modifications: N-terminus assumed
SMILES: CC[C@H](C)[C@H](NC(=O)[C@H](Cc1ccccc1)NC(=O)[C@H](CCC(=O)O)NC(=O)[C@H](CCCCN)NC(=O)[C@@H](NC(=O)[C@H](C)NC(=O)[C@H](CCC(=O)O)NC(=O)CNC(=O)[C@H](CCC(=O)O)NC(=O)[C@H](CC(C)C)NC(=O)[C@H](Cc1ccc(O)cc1)NC(=O)[C@H](CO)NC(=O)[C@H](CO)NC(=O)[C@@H](NC(=O)[C@H](CC(=O)O)NC(=O)[C@H](CO)NC(=O)[C@@H](NC(=O)[C@H](Cc1ccccc1)NC(=O)[C@@H](NC(=O)CNC(=O)[C@H](CCC(=O)O)NC(=O)C(C)(C)NC(=O)[C@@H](N)Cc1c[nH]cn1)[C@@H](C)O)[C@@H](C)O)C(C)C)C(C)C)C(=O)N[C@@H](C)C(=O)N[C@@H](Cc1c[nH]c2ccccc12)C(=O)N[C@@H](CC(C)C)C(=O)N[C@@H](CC(C)C)C(=O)N[C@@H](CCC(=O)O)C(=O)N[C@@H](CCCCN)C(=O)NC(C)(C)C(=O)N[C@@H](CCCCN)C(=O)N[C@@H](CCC(=O)O)C(=O)N[C@@H](Cc1c[nH]c2ccccc12)C(=O)N[C@@H](CC(C)C)C(N)=O
B6: [Aib8,Lys23,Val25,Glu34,Lys35,Aib36,Lys37]-GLP-1-(7-37)-peptidyl-Glu-Phe-Leu amide (peptide)
peptide: H[Aib]EGTFTSDVSSYLEGKAVKEFIAWLVEK[Aib]KEFL-NH2
modifications: N-terminus assumed
SMILES: CC[C@H](C)[C@H](NC(=O)[C@H](Cc1ccccc1)NC(=O)[C@H](CCC(=O)O)NC(=O)[C@H](CCCCN)NC(=O)[C@@H](NC(=O)[C@H](C)NC(=O)[C@H](CCCCN)NC(=O)CNC(=O)[C@H](CCC(=O)O)NC(=O)[C@H](CC(C)C)NC(=O)[C@H](Cc1ccc(O)cc1)NC(=O)[C@H](CO)NC(=O)[C@H](CO)NC(=O)[C@@H](NC(=O)[C@H](CC(=O)O)NC(=O)[C@H](CO)NC(=O)[C@@H](NC(=O)[C@H](Cc1ccccc1)NC(=O)[C@@H](NC(=O)CNC(=O)[C@H](CCC(=O)O)NC(=O)C(C)(C)NC(=O)[C@@H](N)Cc1c[nH]cn1)[C@@H](C)O)[C@@H](C)O)C(C)C)C(C)C)C(=O)N[C@@H](C)C(=O)N[C@@H](Cc1c[nH]c2ccccc12)C(=O)N[C@@H](CC(C)C)C(=O)N[C@H](C(=O)N[C@@H](CCC(=O)O)C(=O)N[C@@H](CCCCN)C(=O)NC(C)(C)C(=O)N[C@@H](CCCCN)C(=O)N[C@@H](CCC(=O)O)C(=O)N[C@@H](Cc1ccccc1)C(=O)N[C@@H](CC(C)C)C(N)=O)C(C)C
B7: [Aib8,Glu23,Val25,Arg26,Glu34,Arg35,Val36,Arg37]-GLP-1-(7-37)-peptidyl-Glu-Phe-Leu-Lys amide (peptide)
peptide: H[Aib]EGTFTSDVSSYLEGEAVREFIAWLVERVREFLK-NH2
modifications: N-terminus assumed
SMILES: CC[C@H](C)[C@H](NC(=O)[C@H](Cc1ccccc1)NC(=O)[C@H](CCC(=O)O)NC(=O)[C@H](CCCNC(=N)N)NC(=O)[C@@H](NC(=O)[C@H](C)NC(=O)[C@H](CCC(=O)O)NC(=O)CNC(=O)[C@H](CCC(=O)O)NC(=O)[C@H](CC(C)C)NC(=O)[C@H](Cc1ccc(O)cc1)NC(=O)[C@H](CO)NC(=O)[C@H](CO)NC(=O)[C@@H](NC(=O)[C@H](CC(=O)O)NC(=O)[C@H](CO)NC(=O)[C@@H](NC(=O)[C@H](Cc1ccccc1)NC(=O)[C@@H](NC(=O)CNC(=O)[C@H](CCC(=O)O)NC(=O)C(C)(C)NC(=O)[C@@H](N)Cc1c[nH]cn1)[C@@H](C)O)[C@@H](C)O)C(C)C)C(C)C)C(=O)N[C@@H](C)C(=O)N[C@@H](Cc1c[nH]c2ccccc12)C(=O)N[C@@H](CC(C)C)C(=O)N[C@H](C(=O)N[C@@H](CCC(=O)O)C(=O)N[C@@H](CCCNC(=N)N)C(=O)N[C@H](C(=O)N[C@@H](CCCNC(=N)N)C(=O)N[C@@H](CCC(=O)O)C(=O)N[C@@H](Cc1ccccc1)C(=O)N[C@@H](CC(C)C)C(=O)N[C@@H](CCCCN)C(N)=O)C(C)C)C(C)C
B8: [Aib8,Glu23,Val25,Glu34,Lys35,Phe36,Lys37]-GLP-1-(7-37)-peptidyl-Glu-Phe-Phe amide (peptide)
peptide: H[Aib]EGTFTSDVSSYLEGEAVKEFIAWLVEKFKEFF-NH2
modifications: N-terminus assumed
SMILES: CC[C@H](C)[C@H](NC(=O)[C@H](Cc1ccccc1)NC(=O)[C@H](CCC(=O)O)NC(=O)[C@H](CCCCN)NC(=O)[C@@H](NC(=O)[C@H](C)NC(=O)[C@H](CCC(=O)O)NC(=O)CNC(=O)[C@H](CCC(=O)O)NC(=O)[C@H](CC(C)C)NC(=O)[C@H](Cc1ccc(O)cc1)NC(=O)[C@H](CO)NC(=O)[C@H](CO)NC(=O)[C@@H](NC(=O)[C@H](CC(=O)O)NC(=O)[C@H](CO)NC(=O)[C@@H](NC(=O)[C@H](Cc1ccccc1)NC(=O)[C@@H](NC(=O)CNC(=O)[C@H](CCC(=O)O)NC(=O)C(C)(C)NC(=O)[C@@H](N)Cc1c[nH]cn1)[C@@H](C)O)[C@@H](C)O)C(C)C)C(C)C)C(=O)N[C@@H](C)C(=O)N[C@@H](Cc1c[nH]c2ccccc12)C(=O)N[C@@H](CC(C)C)C(=O)N[C@H](C(=O)N[C@@H](CCC(=O)O)C(=O)N[C@@H](CCCCN)C(=O)N[C@@H](Cc1ccccc1)C(=O)N[C@@H](CCCCN)C(=O)N[C@@H](CCC(=O)O)C(=O)N[C@@H](Cc1ccccc1)C(=O)N[C@@H](Cc1ccccc1)C(N)=O)C(C)C

target: human GLP-1 receptor (human, UniProt P43220); experiment: cell-based or functional assay

Binder | CRE luciferase EC50, 0% HSA | CRE luciferase EC50, 1% HSA
B1 | 103 pM | 43 pM
B2 | 474 pM | 381 pM
B3 | 77 pM | 25 pM
B4 | 872 pM | 368 pM
B5 | 659 pM | 320 pM
B6 | 311 pM | 173 pM
B7 | 433 pM | 118 pM
HGEGTFTSDVSSYLEGEAVKEFIAWLVEKVKEFLG [[Gly8,Glu23,Val25,Glu34,Lys35,Val36,Lys37]-GLP-1-(7-37)-peptidyl-Glu-Phe-Leu-Gly] | 464 pM | 122 pM
B8 | 1220 pM | 431 pM
